Test results: the supplement of paper PMC7877785
± gives the uncertainty stated by the source.

Test: self-splicing fitness, log relative to wild type (ln ratio); higher = more splicing; Tetrahymena group I intron in knt gene, E. coli kanamycin selection, DiMSum; sequences stand for … in CUCUCU…GGAGGGAAAAGUUAUCAGGCAUGCACCUGGUAGCUAGUCUUUAAACCAAUAGAUUGCAUCGGUUUAAAAGGCAAGACCGUCAAAUUGCGGGAAAGGGGUCAACAGCCGUUCAGUACCAAGUCUCAGGGGAAACUUUGAGAUGGCCUUGCAAAGGGUAUGGUAAUAAGCUGACGGACAUGGUCCUAACCACGCAGCCAAGUCCUAAGUCAACAGAUCUUCUGUUGAUAUGGAUGCAGUUCACAGACUAAAUGUCGGUCGGGGAAGAUGUAUUCUUCUCAUAAGAUAUAGUCGGACCUCUCCUUAAUGGGAGCUAGCGGAUGAAGUGAUGCAACACUGGAGCCGCUGGGAACUAAUUUGUAUGCGAAAGUAUAUUGAUUAGUUUUGGAGUACUCGUGGUCG
How it was run: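 The eight P1ex-region nucleotides of an intron in the knt kanamycin-resistance gene on pET-22b(+) were all randomised and the library put into E. coli BL21(DE3). Six replicate transformations were grown overnight at 37°C or 30°C on LB agar with or without 25 μg/mL kanamycin, together with 100 μg/mL carbenicillin, 50 μM IPTG and 0.2% rhamnose. Colonies were pooled and amplicon-sequenced on an Illumina HiSeq 2500. Fitness from DiMSum is the error-weighted combination of wild-type-normalised replicate fold changes, kanamycin over none.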

Row | Sequence | self-splicing fitness (ln) (30 °C) | self-splicing fitness (ln) (37 °C)
1 | UCGUAGCAAUAUUACGUAAC | -1.64 ± 0.34 | 
2 | UCGUAGCAAUAUUACGUAAG | -2.62 ± 0.23 | -2.58 ± 0.32
3 | UCGUAGCAAUAUUACGUCAU | -3.23 ± 0.35 | -2.17 ± 0.33
4 | UCGUAGCAAUAUUACGUCGU | -4.26 ± 0.32 | -1.25 ± 0.18
5 | UCGUAGCAAUAUUACGUGUG | -2.3 ± 0.1 | -1.41 ± 0.089
6 | UCGUAGCAAUAUUACGUUUU | -2.58 ± 0.17 | -3.25 ± 0.23
7 | UCUAAGCAAUAUUACGAAAG | -2.88 ± 0.17 | -2.03 ± 0.18
8 | UCUAAGCAAUAUUACGAAUC |  | -2.3 ± 0.45
9 | UCUAAGCAAUAUUACGACGG | 0.00998 ± 0.076 | 0.286 ± 0.11
10 | UCUAAGCAAUAUUACGAGAG | -3.21 ± 0.28 | -2.37 ± 0.21
11 | UCUAAGCAAUAUUACGAGUG | -0.69 ± 0.092 | -0.683 ± 0.14
12 | UCUAAGCAAUAUUACGAUAA | -1.46 ± 0.17 | -0.693 ± 0.2
13 | UCUAAGCAAUAUUACGCAGG | -2.92 ± 0.23 | -2.36 ± 0.41
14 | UCUAAGCAAUAUUACGCGAA | -3.03 ± 0.2 | -1.69 ± 0.16
15 | UCUAAGCAAUAUUACGCUUU | -3.36 ± 0.21 | -2.94 ± 0.48
16 | UCUAAGCAAUAUUACGGAAA | -2.93 ± 0.28 | -1.9 ± 0.27
17 | UCUAAGCAAUAUUACGGCAC | -3.19 ± 0.44 | -2.85 ± 0.32
18 | UCUAAGCAAUAUUACGGUCA | -1.31 ± 0.12 | -0.792 ± 0.12
19 | UCUAAGCAAUAUUACGUAAA | -1.36 ± 0.097 | -0.985 ± 0.12
20 | UCUAAGCAAUAUUACGUACA | -1.57 ± 0.13 | -1.13 ± 0.13

Row | Sequence | self-splicing fitness (ln) (30 °C) | self-splicing fitness (ln) (37 °C)
21 | UCUAAGCAAUAUUACGUACG | -0.481 ± 0.11 | 0.49 ± 0.13
22 | UCUAAGCAAUAUUACGUAUC | -4.13 ± 0.24 | -3.01 ± 0.21
23 | UCUAAGCAAUAUUACGUGCC | -4.37 ± 0.39 | 
24 | UCUAAGCAAUAUUACGUGUC | -4.21 ± 0.36 | 
25 | UCUAAGCAAUAUUACGUUUG | -3.95 ± 0.3 | -2.4 ± 0.24
26 | UCUCAGCAAUAUUACGAAAG | -1.9 ± 0.26 | -1.36 ± 0.21
27 | UCUCAGCAAUAUUACGACAG | -2.76 ± 0.17 | -2.33 ± 0.17
28 | UCUCAGCAAUAUUACGAGCC | -1.14 ± 0.19 | -1.68 ± 0.41
29 | UCUCAGCAAUAUUACGAGUU | -2.32 ± 0.11 | -1.13 ± 0.099
30 | UCUCAGCAAUAUUACGAUGA | -1.01 ± 0.12 | -0.477 ± 0.11
31 | UCUCAGCAAUAUUACGAUUU | -1.99 ± 0.093 | -1.1 ± 0.12
32 | UCUCAGCAAUAUUACGCCAA | -2.86 ± 0.27 | -2.74 ± 0.29
33 | UCUCAGCAAUAUUACGCGAC |  | -2.37 ± 0.35
34 | UCUCAGCAAUAUUACGCGGC | -4.17 ± 0.42 | -1.86 ± 0.27
35 | UCUCAGCAAUAUUACGCGGU | -2.89 ± 0.26 | -2.3 ± 0.28
36 | UCUCAGCAAUAUUACGCUCU | -3.26 ± 0.26 | -2.68 ± 0.41
37 | UCUCAGCAAUAUUACGCUUC | -2.92 ± 0.21 | -2.33 ± 0.28
38 | UCUCAGCAAUAUUACGGAGU | -2.81 ± 0.22 | -2.49 ± 0.19
39 | UCUCAGCAAUAUUACGGCAU | -2.27 ± 0.11 | -2.4 ± 0.16
40 | UCUCAGCAAUAUUACGGCGA | -1.13 ± 0.1 | -0.623 ± 0.11
